{"source": "patent US6423315", "about": "(UNIVERSITY OF TENNESSEE RESEARCH, dated 2002)", "biological_target": "I-A^q molecule of MHC (mouse (DBA/1))", "assay": "cell-based or functional assay", "note": "Ends that are not written are not given here."}
{"binder": "PTGPLGPKGQTGELGIAGFKGDTGAK (not fully specified)", "note": "[CII 245-270 [s266, 267, 269]]", "values": [{"measurement": "IL-2 U/ml, T-cell hybridoma 2qCII92.33, molar ratio competitor:CII 245-270 1.6:1", "result": 160, "unit": "U/ml"}, {"measurement": "IL-2 U/ml, T-cell hybridoma 2qCII92.33, molar ratio competitor:CII 245-270 3.2:1", "result": 160, "unit": "U/ml"}, {"measurement": "IL-2 U/ml, T-cell hybridoma 2qCII92.33, molar ratio competitor:CII 245-270 6.5:1", "result": 160, "unit": "U/ml"}, {"measurement": "IL-2 U/ml, T-cell hybridoma 2qCII92.33, molar ratio competitor:CII 245-270 13:1", "result": 160, "unit": "U/ml"}, {"measurement": "IL-2 U/ml, T-cell hybridoma qCII85.33, molar ratio competitor:CII 245-270 1.6:1", "result": 640, "unit": "U/ml"}, {"measurement": "IL-2 U/ml, T-cell hybridoma qCII85.33, molar ratio competitor:CII 245-270 3.2:1", "result": 640, "unit": "U/ml"}, {"measurement": "IL-2 U/ml, T-cell hybridoma qCII85.33, molar ratio competitor:CII 245-270 6.5:1", "result": 640, "unit": "U/ml"}, {"measurement": "IL-2 U/ml, T-cell hybridoma qCII85.33, molar ratio competitor:CII 245-270 13:1", "result": 640, "unit": "U/ml"}, {"measurement": "IL-2 U/ml, T-cell hybridoma qCII98.10, molar ratio competitor:CII 245-270 1.6:1", "result": 160, "unit": "U/ml"}, {"measurement": "IL-2 U/ml, T-cell hybridoma qCII98.10, molar ratio competitor:CII 245-270 3.2:1", "result": 160, "unit": "U/ml"}, {"measurement": "IL-2 U/ml, T-cell hybridoma qCII98.10, molar ratio competitor:CII 245-270 6.5:1", "result": 160, "unit": "U/ml"}, {"measurement": "IL-2 U/ml, T-cell hybridoma qCII98.10, molar ratio competitor:CII 245-270 13:1", "result": 160, "unit": "U/ml"}]}
